From PMC7823470, “Arabidopsis Plant Natriuretic Peptide Is a Novel Interactor of Rubisco Activase” (Life, 2020)

Key:
Rubisco activase (RCA) = test: Affinity isolation with LC-MS/MS; format: binding, Arabidopsis thaliana; settings: pAtPNP-A bait vs pScr control
Description: Isolation of putative interactors of AtPNP-A was performed as described previously with minor modifications. For each sample, 5 g of plant material was used, no cross-linker was applied, the supernatant was incubated either with the N-terminally biotinylated pAtPNP-A or pScr (negative control) for 15 min. The protein extract mixture was incubated with Dynabeads M-280 (Life Technologies, Singapore) for 30 min. Eluted proteins were separated by SDS-PAGE (10% gels run for 15 min at 100V) and bands visualized with Coomassie Brilliant Blue (Figure S1). Bands were excised for trypsin in-gel digestion of proteins. MS analyses were performed on linear trap quadrupole (LTQ) Orbitrap Velos mass spectrometer (Thermo Scientific, Waltham, MA, USA) under conditions previously described. Scaffold version 4.11.1 (Proteome Software Inc.) was used to validate MS/MS based peptide and protein identification. […] Relative quantification of total spectrum counts of proteins identified with a confidence level of at least 99% at FDR < 0.1 in each sample containing pAtPNP-A or pScr (negative control) from three independent experiments was performed using Scaffold. […] The quantification file as well as the raw data are available via ProteomeXchange with identifier PXD023216, and the MS information is integrated in Supplementary Tables S1–S6.

plant leaves = system: plant leaves; parameters: method as in 2 sources, ref 13, 20 = [13]; PMID 21550130; doi:10.1016/j.jplph.2011.03.011; 13. Ruzvidzo O. Donaldson L. Valentine A. Gehring C. The Arabidopsis thaliana natriuretic peptide AtPNP-A is a systemic regulator of leaf dark respiration and signals via the phloem J. Plant Physiol. || [20]; PMID 19015524; doi:10.1073/pnas.0810107105; 20. Gottig N. Garavaglia B.S. Daurelio L. Valentine A.J. Gehring C. Orellano E.G. Ottado J. Xanthomonas axonopodis pv. citri uses a plant natriuretic peptide-like protein to modify host homeostasis Pr ||| ref 20 = [20]; PMID 19015524; doi:10.1073/pnas.0810107105; 20. Gottig N. Garavaglia B.S. Daurelio L. Valentine A.J. Gehring C. Orellano E.G. Ottado J. Xanthomonas axonopodis pv. citri uses a plant natriuretic peptide-like protein to modify host homeostasis Pr; settings: cited from earlier work
Excerpt: In the host–pathogens ‘arms race’, bacteria may acquire ‘eukaryotic-like’ genes from their hosts through horizontal gene transfer. […] Tobacco (Nicotiana tabacum) RCA gene is involved in resistance to herbivory, and its down-regulation impaired JA signaling and led to reduced defense against both generalist (Spodoptera littoralis) and specialist (Manduca sexta) herbivore elicitation ...

Pst DC3000 = system: Pst DC3000; parameters: method as in PMID 32409317; settings: exogenous application; cited from earlier work
Excerpt: Tobacco (Nicotiana tabacum) RCA gene is involved in resistance to herbivory, and its down-regulation impaired JA signaling and led to reduced defense against both generalist (Spodoptera littoralis) and specialist (Manduca sexta) herbivore elicitation ...

RCA = settings: Yeast Two-Hybrid, AtPNP-A lacking the signal peptide; cited from earlier work

B1: AtPNP-A: Arabidopsis thaliana PNP, termed AtPNP-A (At2g18660; Q9ZV52) (protein)
chain: AQGKAVYYDPPYTRSACYGTQRETLVVGVKNNLWQNGRACGRRYRVRCIGATYNFDRACTGRTVDVKVVDFCREPCNGDLNLSRDAFRVIANTDAGNIRVVYTPI
modifications: left off: His6, N-terminal, kept
Identification of RCA as interactor (Rubisco activase (RCA)): identified with high confidence
Leaf photosynthetic rates and apparent photon yield (plant leaves): modulate leaf photosynthetic rates and apparent photon yield
Leaf dark respiration rates (plant leaves; treatment of plant leaves): triggers increase in leaf dark respiration rates
Leaf photosynthetic rates and efficiency of light utilization (plant leaves; treatment of plant leaves): regulates leaf photosynthetic rates and efficiency of light utilization during photosynthetic CO2 fixation
Leaf transpiration rates (plant leaves; treatment of plant leaves): higher leaf transpiration rates
Starch in guard cell chloroplasts (plant leaves; treatment of plant leaves): induces starch reduction in guard cell chloroplasts
Stomatal conductance and stomatal opening (plant leaves; treatment of plant leaves): increases stomatal conductance and stomatal opening
Susceptibility to Pst DC3000 (Pst DC3000): enhanced susceptibility to Pst DC3000
Interaction with RCA (RCA): strong interactor
